From PMC3063151 (The Journal of neuroscience : the official journal of the …, 2011)

B1: GluN1-NTD (crystallised; from GluN1-NTD-8His) (domain or fragment)
chain: not shown
modifications: N-linked N-acetyl glucosamine at N61, N203, N239, N276 and N300 (EndoH treated)
B2: GluN1-NTD-Y109C, purified (gel filtration and negative stain EM) (domain or fragment)
chain: not shown

Experiments:
crystal structure = target: the molecule itself; assay: crystal structure
SEC = target: the molecule itself; assay: SEC

| Protein | binding result (crystal structure) | stoichiometry N (SEC) |
| --- | --- | --- |
| B1 | binds | – |
| B2 | – | 2 |
